One assay deals with VEGF165 (UniProt P15692). Nature of the assay: SPR (Biacore T100, 25 C); binder captured on anti-human IgG CM5 chip, VEGF165 as analyte. For orientation: SPR reads the build-up and loss of mass on a sensor chip optically.
For assay [1], the target named is recombinant human CD28 (human) (UniProt P10747). Nature of the assay: ELISA; CD28 coated at 100 ng/ml, fusion protein titrated, anti-human IgG Fc-HRP. (In general: In an ELISA, binding on a coated surface is turned into a signal by an enzyme label.)

The record followed here is US20230235011A1.

VEGF165, sequence (P15692 other isoform, or with tags, fused parts or gaps limits assumed): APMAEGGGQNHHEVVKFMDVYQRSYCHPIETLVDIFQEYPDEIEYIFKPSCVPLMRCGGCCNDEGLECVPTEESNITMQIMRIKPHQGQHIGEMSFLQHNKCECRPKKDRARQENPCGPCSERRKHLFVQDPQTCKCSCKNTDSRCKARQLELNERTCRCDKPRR
control protein 301-8 (aflibercept) (Fc fusion), sequence (chain): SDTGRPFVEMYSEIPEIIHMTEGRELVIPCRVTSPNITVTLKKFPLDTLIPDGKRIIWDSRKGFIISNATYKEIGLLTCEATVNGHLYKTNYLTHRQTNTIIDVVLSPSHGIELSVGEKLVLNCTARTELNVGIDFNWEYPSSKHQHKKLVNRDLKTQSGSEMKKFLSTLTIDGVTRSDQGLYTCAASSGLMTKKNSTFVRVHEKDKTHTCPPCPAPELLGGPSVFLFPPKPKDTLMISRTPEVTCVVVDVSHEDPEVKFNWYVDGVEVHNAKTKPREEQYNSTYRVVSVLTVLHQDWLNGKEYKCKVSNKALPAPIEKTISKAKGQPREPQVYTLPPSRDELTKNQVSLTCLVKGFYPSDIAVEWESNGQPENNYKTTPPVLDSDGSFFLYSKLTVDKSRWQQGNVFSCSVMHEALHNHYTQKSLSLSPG
fusion protein BY24.23 (hCD80-Fc, IgG4) (Fc fusion), sequence (chain): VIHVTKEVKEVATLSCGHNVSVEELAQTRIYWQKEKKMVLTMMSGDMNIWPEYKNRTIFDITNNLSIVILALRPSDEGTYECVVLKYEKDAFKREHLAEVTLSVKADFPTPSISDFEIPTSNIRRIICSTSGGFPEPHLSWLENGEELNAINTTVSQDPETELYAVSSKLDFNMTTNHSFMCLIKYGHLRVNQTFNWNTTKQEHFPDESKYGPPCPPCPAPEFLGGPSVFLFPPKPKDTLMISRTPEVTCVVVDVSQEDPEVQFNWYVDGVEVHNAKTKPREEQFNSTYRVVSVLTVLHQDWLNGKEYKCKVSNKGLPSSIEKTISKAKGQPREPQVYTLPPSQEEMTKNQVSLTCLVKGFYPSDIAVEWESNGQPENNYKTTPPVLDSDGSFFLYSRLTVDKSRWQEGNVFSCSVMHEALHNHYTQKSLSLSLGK
fusion protein BY24.30 (Fc-hCD80, IgG4) (Fc fusion), sequence (chain): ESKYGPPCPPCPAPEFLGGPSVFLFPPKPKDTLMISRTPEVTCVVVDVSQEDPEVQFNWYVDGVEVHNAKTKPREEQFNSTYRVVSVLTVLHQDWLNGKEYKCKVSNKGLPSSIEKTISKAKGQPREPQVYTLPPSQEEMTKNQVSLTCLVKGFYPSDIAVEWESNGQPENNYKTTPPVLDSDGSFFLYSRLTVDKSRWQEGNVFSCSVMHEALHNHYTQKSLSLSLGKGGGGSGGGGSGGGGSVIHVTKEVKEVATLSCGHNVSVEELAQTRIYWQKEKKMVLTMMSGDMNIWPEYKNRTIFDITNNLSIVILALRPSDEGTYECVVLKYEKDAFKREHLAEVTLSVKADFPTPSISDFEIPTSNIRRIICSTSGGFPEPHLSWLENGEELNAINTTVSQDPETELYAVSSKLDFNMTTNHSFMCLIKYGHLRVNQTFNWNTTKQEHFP

Consider “control protein 301-8 (aflibercept) (Fc fusion)”, for which, in the assay with VEGF165, the Kd – broadly, a measure of binding affinity in units of concentration – was determined as 7.35 pM; the koff (usually the first-order rate constant of dissociation) stood at 4.33e-05 s⁻¹; the kon (usually the second-order rate constant of association) was 5.89e+06 M⁻¹ s⁻¹. Consider “fusion protein BY24.23 (hCD80-Fc, IgG4) (Fc fusion)”, for which the EC50 (as a rule, the concentration at which the effect is half-maximal) in assay [1] stood at 6.2 µg/mL.

On to “fusion protein BY24.30 (Fc-hCD80, IgG4) (Fc fusion)”, for which the EC50 in assay [1] stood at 0.97 µg/mL.
